Test results reported in patent publication US10221225B2, “Peptides and combination of peptides and scaffolds thereof for use in immunotherapy against colorectal carcinoma (CRC) and other cancers” (immatics biotechnologies GmbH, priority 2015, dated 2019).

Target: HLA-A*02:01 (Homo sapiens, UniProt P04439, D140Y/D185E/D98H/E176V/E277Q/G131W/G231S/I119V/I121R/I166T/I218V/L300P/L318F/N151K/N90K/P208A/P217A/Q86G/Q94H/R138H/R169H/T345S)
Assay: MHC binding assay (UV-ligand exchange, beta2m ELISA, peptide exchange yield)
Details: MHC class I binding score; binding to HLA-A*02:01 ranged by peptide exchange yield (UV-ligand exchange, β2m ELISA)
Source text: Candidate peptides for T cell based therapies according to the present invention were further tested for their MHC binding capacity (affinity). The individual peptide-MHC complexes were produced by UV-ligand exchange, where a UV-sensitive peptide is cleaved upon UV-irradiation, and exchanged with the peptide of interest as analyzed. Only peptide candidates that can effectively bind and stabilize the peptide-receptive MHC molecules prevent dissociation of the MHC complexes. To determine the yield of the exchange reaction, an ELISA was performed based on the detection of the light chain (β2m) of stabilized MHC complexes. The assay was performed as generally described in Rodenko et al. (Rodenko et al., 2006).
96 well MAXISorp plates (NUNC) were coated over night with 2 ug/ml streptavidin in PBS at room temperature, washed 4× and blocked for 1 h at 37° C. in 2% BSA containing blocking buffer. Refolded HLA-A*02:01/MLA-001 monomers served as standards, covering the range of 15-500 ng/ml. Peptide-MHC monomers of the UV-exchange reaction were diluted 100 fold in blocking buffer. Samples were incubated for 1 h at 37° C., washed four times, incubated with 2 ug/ml HRP conjugated anti-β2m for 1 h at 37° C., washed again and detected with TMB solution that is stopped with […]. Absorption was measured at 450 nm. Candidate peptides that show a high exchange yield (preferably higher than 50%, most preferred higher than 75%) are generally preferred for a generation and production of antibodies or fragments thereof, and/or T cell receptors or fragments thereof, as they show sufficient avidity to the MHC molecules and prevent dissociation of the MHC complexes.

Peptide exchange	Substance
″+++″ (≥50 = +++)	153 (ILFSEDSTKLFV; listed as Homo sapiens) [compound 153]
″+++″ (≥50 = +++)	145 (LLLEVVKQV; listed as Homo sapiens) [compound 145]
″++″ (≥20% = ++)	82 (QLYEEPDTKL; listed as Homo sapiens) [compound 82]
″+++″ (≥50 = +++)	72 (YLLDYPNNLL; listed as Homo sapiens) [compound 72]
″+++″ (≥50 = +++)	53 (FLLGSEIKL; listed as Homo sapiens) [compound 53]
″++″ (≥20% = ++)	56 (VLFTDEGVPKFL; listed as Homo sapiens) [compound 56]
″+++″ (≥50 = +++)	177 (ALLQGAIESV; listed as Homo sapiens) [compound 177]
″+++″ (≥50 = +++)	15 (LQLDKEFQL; listed as Homo sapiens) [compound 15]
″++″ (≥20% = ++)	96 (KLYSRLVYV; listed as Homo sapiens) [compound 96]
″+++″ (≥50 = +++)	183 (TLQEVVTGV; listed as Homo sapiens) [compound 183]
″+++″ (≥50 = +++)	8 (ALMLQGVDLL; listed as Homo sapiens) [compound 8]
″++″ (≥20% = ++)	171 (RLQETEGMVAV; listed as Homo sapiens) [compound 171]
″+++″ (≥50 = +++)	175 (TLLGGKEAQALGV; listed as Homo sapiens) [compound 175]
″++″ (≥20% = ++)	128 (MLDDRAYLV; listed as Homo sapiens) [compound 128]
″++″ (≥20% = ++)	176 (RTLDKVLEV; listed as Homo sapiens) [compound 176]
″+++″ (≥50 = +++)	185 (VLYTGVVRV; listed as Homo sapiens) [compound 185]
″++″ (≥20% = ++)	112 (KLGQVLIYL; listed as Homo sapiens) [compound 112]
″+++″ (≥50 = +++)	20 (YLKDGDVML; listed as Homo sapiens) [compound 20]
″+++″ (≥50 = +++)	99 (KLLEVDLDTV; listed as Homo sapiens) [compound 99]
″+++″ (≥50 = +++)	144 (LLNDRIWLA; listed as Homo sapiens) [compound 144]
″+++″ (≥50 = +++)	110 (LLGELPRLLLL; listed as Homo sapiens) [compound 110]
″++++″ (≥75% = ++++)	28 (ALTEIQEFI; listed as Homo sapiens) [compound 28]
″+++″ (≥50 = +++)	54 (ALLNGEYLLAA; listed as Homo sapiens) [compound 54]
″++″ (≥20% = ++)	77 (SLLKRDFGA; listed as Homo sapiens) [compound 77]

Peptide exchange	Substance
″+++″ (≥50 = +++)	87 (LLFDAPDLRL; listed as Homo sapiens) [compound 87]
″+++″ (≥50 = +++)	179 (RLLSPLSSA; listed as Homo sapiens) [compound 179]
″+++″ (≥50 = +++)	163 (RLLHEVQEL; listed as Homo sapiens) [compound 163]
″+++″ (≥50 = +++)	44 (SLESKLTSV; listed as Homo sapiens) [compound 44]
″+++″ (≥50 = +++)	92 (WIDDTSAFV; listed as Homo sapiens) [compound 92]
″+++″ (≥50 = +++)	67 (SLNDLEKDVMLL; listed as Homo sapiens) [compound 67]
″+++″ (≥50 = +++)	186 (KMSEKILLL; listed as Homo sapiens) [compound 186]
″++″ (≥20% = ++)	48 (FLDASDPAL; listed as Homo sapiens) [compound 48]
″+++″ (≥50 = +++)	102 (KILVSLIEV; listed as Homo sapiens) [compound 102]
″+++″ (≥50 = +++)	35 (KLLDLTVRI; listed as Homo sapiens) [compound 35]
″++″ (≥20% = ++)	86 (KVFPGKISV; listed as Homo sapiens) [compound 86]
″+″ (≥10% = +)	30 (GLSSAYGGL; listed as Homo sapiens) [compound 30]
″+++″ (≥50 = +++)	34 (ILLEKSVSV; listed as Homo sapiens) [compound 34]
″++++″ (≥75% = ++++)	174 (ILLDDNMQIRL; listed as Homo sapiens) [compound 174]
″+++″ (≥50 = +++)	106 (SLISEKILL; listed as Homo sapiens) [compound 106]
″++″ (≥20% = ++)	109 (ALDGDQMEL; listed as Homo sapiens) [compound 109]
″+++″ (≥50 = +++)	162 (KLMDYIDEL; listed as Homo sapiens) [compound 162]
″++″ (≥20% = ++)	80 (QVDEVVDIMRV; listed as Homo sapiens) [compound 80]
″++″ (≥20% = ++)	26 (GLASKENFSNVSL; listed as Homo sapiens) [compound 26]
″++″ (≥20% = ++)	40 (ALSNVIHKV; listed as Homo sapiens) [compound 40]
″+++″ (≥50 = +++)	160 (KLLEFDQLQL; listed as Homo sapiens) [compound 160]
″+++″ (≥50 = +++)	36 (GLLESPSIFNFTA; listed as Homo sapiens) [compound 36]
″+++″ (≥50 = +++)	115 (SLFDVSHML; listed as Homo sapiens) [compound 115]
″+++″ (≥50 = +++)	173 (KLGDLMVLL; listed as Homo sapiens) [compound 173]

Peptide exchange	Substance
″++″ (≥20% = ++)	75 (EMIENIQSV; listed as Homo sapiens) [compound 75]
″+++″ (≥50 = +++)	169 (YLAHFIEGL; listed as Homo sapiens) [compound 169]
″+++″ (≥50 = +++)	140 (LLNEILEQV; listed as Homo sapiens) [compound 140]
″++″ (≥20% = ++)	58 (AMADKMDMSL; listed as Homo sapiens) [compound 58]
″+++″ (≥50 = +++)	73 (YLFDIAVSM; listed as Homo sapiens) [compound 73]
″+++″ (≥50 = +++)	184 (SLLDENNVSSYL; listed as Homo sapiens) [compound 184]
″+++″ (≥50 = +++)	190 (AMAEMVLQV; listed as Homo sapiens) [compound 190]
″+++″ (≥50 = +++)	4 (RLAELTVDEFL; listed as Homo sapiens) [compound 4]
″++″ (≥20% = ++)	146 (ALSDETWGL; listed as Homo sapiens) [compound 146]
″+++″ (≥50 = +++)	166 (GLLEARGILGL; listed as Homo sapiens) [compound 166]
″++++″ (≥75% = ++++)	156 (SLMMTIINL; listed as Homo sapiens) [compound 156]
″+++″ (≥50 = +++)	76 (YLIGEKQHYL; listed as Homo sapiens) [compound 76]
″++″ (≥20% = ++)	60 (VLDEDEPRFL; listed as Homo sapiens) [compound 60]
″++″ (≥20% = ++)	119 (ILYQTVTGL; listed as Homo sapiens) [compound 119]
″+++″ (≥50 = +++)	188 (FLVDGPRVQL; listed as Homo sapiens) [compound 188]
″++″ (≥20% = ++)	103 (FLFGYPKRL; listed as Homo sapiens) [compound 103]
″++++″ (≥75% = ++++)	88 (KLDIKVETV; listed as Homo sapiens) [compound 88]
″+++″ (≥50 = +++)	100 (SLDDFLATA; listed as Homo sapiens) [compound 100]
″++″ (≥20% = ++)	120 (VLYEGVDEV; listed as Homo sapiens) [compound 120]
″+++″ (≥50 = +++)	143 (KLSDVWKEL; listed as Homo sapiens) [compound 143]
″+″ (≥10% = +)	114 (TAVGHALVL; listed as Homo sapiens) [compound 114]
″+++″ (≥50 = +++)	158 (GLLDPSVFHV; listed as Homo sapiens) [compound 158]
″+++″ (≥50 = +++)	50 (TLMAEMHVV; listed as Homo sapiens) [compound 50]
″+++″ (≥50 = +++)	46 (GLDDRYSLV; listed as Homo sapiens) [compound 46]
